# Assay results taken from publication PMC3131266.
# Legend:
# [1] = molecular target: glycocalicin (Homo sapiens) (UniProt P07359); details: cited from earlier work
# [2] = molecular target: glycocalicin, the carbohydrate-rich extracellular portion of the platelet membrane glycoprotein GPIbα (human) (UniProt P07359); assay: binding of whole bacteria to immobilised protein in microtiter wells; as a1, bacteria diluted into DPBS containing 44 mM α-2,3-sialyl (1-thioethyl)galactose, pH 7.5, compared with DPBS alone
# Chain of glycocalicin, the carbohydrate-rich extracellular portion of the platelet membrane glycoprotein GPIbα (human) (P07359 17-531): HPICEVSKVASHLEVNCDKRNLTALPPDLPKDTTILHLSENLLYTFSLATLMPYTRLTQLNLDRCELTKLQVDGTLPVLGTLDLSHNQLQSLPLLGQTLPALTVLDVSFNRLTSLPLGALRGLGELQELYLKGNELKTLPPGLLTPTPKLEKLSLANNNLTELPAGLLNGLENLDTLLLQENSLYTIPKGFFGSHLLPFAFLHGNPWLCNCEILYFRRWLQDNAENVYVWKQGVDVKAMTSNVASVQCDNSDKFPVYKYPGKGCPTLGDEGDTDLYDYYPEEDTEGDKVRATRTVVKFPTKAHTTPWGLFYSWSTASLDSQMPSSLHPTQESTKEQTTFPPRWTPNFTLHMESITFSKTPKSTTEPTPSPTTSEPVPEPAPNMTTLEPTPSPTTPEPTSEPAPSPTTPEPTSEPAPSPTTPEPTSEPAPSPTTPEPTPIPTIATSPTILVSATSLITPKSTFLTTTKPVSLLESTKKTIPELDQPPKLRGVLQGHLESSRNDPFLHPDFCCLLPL
# Chain of glycocalicin (Homo sapiens) (P07359 17-506): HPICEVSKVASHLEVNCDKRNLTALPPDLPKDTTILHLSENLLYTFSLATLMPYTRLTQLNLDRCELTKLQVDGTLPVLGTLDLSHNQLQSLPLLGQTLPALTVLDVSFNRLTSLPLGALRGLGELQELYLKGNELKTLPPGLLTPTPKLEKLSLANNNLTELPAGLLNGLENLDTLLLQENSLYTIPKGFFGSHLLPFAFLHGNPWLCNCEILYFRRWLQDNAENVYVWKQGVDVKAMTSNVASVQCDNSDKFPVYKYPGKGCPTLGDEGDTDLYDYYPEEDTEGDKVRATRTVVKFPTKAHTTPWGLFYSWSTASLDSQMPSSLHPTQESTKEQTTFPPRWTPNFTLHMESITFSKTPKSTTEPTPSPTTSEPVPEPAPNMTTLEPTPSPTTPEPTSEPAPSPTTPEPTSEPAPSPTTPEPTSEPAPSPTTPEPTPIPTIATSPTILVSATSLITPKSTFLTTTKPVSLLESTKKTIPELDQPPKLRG
# Chain of GspB (Q939N5 86-3041): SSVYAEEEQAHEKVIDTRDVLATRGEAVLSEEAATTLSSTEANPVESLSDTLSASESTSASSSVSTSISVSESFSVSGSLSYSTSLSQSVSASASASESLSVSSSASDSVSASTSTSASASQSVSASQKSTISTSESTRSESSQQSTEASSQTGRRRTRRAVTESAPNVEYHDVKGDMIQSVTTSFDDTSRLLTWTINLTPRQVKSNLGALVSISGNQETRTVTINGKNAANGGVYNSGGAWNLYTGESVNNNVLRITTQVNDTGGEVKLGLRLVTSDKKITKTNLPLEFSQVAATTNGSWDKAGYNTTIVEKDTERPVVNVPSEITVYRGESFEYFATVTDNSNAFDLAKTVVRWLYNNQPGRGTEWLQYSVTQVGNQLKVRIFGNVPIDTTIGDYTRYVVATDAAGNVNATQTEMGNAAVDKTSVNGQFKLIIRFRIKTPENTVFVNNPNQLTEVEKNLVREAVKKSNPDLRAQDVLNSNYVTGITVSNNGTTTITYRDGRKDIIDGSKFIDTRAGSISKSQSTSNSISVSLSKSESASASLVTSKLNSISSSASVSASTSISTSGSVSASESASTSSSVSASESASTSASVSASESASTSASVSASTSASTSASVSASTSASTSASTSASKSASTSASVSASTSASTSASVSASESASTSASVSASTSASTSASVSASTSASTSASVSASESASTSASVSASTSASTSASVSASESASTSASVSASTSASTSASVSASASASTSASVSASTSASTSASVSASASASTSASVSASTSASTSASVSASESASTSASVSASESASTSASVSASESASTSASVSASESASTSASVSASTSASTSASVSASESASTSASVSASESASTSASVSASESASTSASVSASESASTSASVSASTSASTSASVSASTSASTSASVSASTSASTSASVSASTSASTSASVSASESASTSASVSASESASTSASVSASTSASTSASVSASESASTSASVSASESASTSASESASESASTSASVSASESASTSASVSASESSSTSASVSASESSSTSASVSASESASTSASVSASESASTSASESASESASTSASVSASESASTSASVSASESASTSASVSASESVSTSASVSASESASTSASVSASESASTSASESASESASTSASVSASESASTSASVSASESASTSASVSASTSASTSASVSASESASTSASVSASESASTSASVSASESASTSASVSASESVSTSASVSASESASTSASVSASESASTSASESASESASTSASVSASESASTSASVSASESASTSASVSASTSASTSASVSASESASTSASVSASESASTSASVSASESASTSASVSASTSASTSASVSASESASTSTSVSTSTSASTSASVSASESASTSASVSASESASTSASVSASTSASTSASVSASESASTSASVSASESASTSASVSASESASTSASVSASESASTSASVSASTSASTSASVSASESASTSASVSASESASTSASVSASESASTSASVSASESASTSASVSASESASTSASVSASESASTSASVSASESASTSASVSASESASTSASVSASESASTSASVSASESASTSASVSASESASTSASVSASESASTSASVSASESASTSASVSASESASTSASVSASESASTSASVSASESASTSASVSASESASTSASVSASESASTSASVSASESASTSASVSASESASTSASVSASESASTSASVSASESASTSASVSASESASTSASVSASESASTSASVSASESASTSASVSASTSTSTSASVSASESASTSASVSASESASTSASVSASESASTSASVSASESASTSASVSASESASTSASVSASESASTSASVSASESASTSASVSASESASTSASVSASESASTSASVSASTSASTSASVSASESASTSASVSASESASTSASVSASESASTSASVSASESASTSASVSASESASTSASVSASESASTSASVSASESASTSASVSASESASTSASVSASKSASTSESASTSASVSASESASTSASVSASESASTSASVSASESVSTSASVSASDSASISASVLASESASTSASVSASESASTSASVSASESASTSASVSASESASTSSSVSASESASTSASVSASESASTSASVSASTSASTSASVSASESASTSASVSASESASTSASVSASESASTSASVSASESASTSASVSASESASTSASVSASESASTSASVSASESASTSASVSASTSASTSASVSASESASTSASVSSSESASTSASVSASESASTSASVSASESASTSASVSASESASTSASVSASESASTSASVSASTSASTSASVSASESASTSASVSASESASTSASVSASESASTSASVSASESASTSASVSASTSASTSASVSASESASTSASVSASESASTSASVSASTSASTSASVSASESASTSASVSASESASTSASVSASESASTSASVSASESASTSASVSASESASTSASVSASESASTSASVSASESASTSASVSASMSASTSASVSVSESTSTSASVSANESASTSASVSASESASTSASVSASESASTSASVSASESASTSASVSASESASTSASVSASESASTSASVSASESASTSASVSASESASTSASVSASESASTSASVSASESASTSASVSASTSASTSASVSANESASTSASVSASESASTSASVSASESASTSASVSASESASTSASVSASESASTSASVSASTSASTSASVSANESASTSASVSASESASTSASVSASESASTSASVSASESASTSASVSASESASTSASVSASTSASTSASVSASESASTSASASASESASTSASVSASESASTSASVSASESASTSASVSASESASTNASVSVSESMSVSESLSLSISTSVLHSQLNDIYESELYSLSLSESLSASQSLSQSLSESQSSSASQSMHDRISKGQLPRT
Substance,Kd [1],"percent reduction of binding by 44 mM α-2,3-sialyl (1-thioethyl)galactose [2]"
GspB (from UniProt Q939N5),23.8 nM,
"GspB of Streptococcus gordonii strain M99, wild type, on the bacterial cell surface, Q939N5 86-3041 (natural protein; carries sialyl-T antigen carbohydrates (sites not stated))",,90%
